The values that follow come from FireProtDB (doi:10.1016/j.jmb.2004.09.082).

For the data set the following is noted: Escherichia coli (strain K12); pH 7.8; 25 °C; GdnHCl; Chromatography; Tris-HCl 5 mM; KCl 200 mM; reversible: yes; whole UniProt chain shown.

B1: Co-chaperonin GroES wild type, P0A6F9 (protein)
chain: MNIRPLHDRVIVKRKEVETKSAGGIVLTGSAAAKSTRGEVLAVGNGRILENGEVKPLDVKVGDIVIFNDGYGVKSEKIDNEEVLIMSESDILAIVEA
In the case of B1, the denaturant m value was 2.3 kcal/mol/M and the unfolding free energy came to 2.3 kcal/mol.
